Earlier results on 1 substance are cited in publication PMC4426669.

This series concerns the target eIF2B1 (Homo sapiens) (UniProt Q14232).

Consider eIF2B1 (from UniProt Q14232), for which the Kd (in general, the constant that tells how readily two partners part at equilibrium) is < 1 nM.
